{"source": "paper PMC5741625", "about": "“Methylation-regulated decommissioning of multimeric PP2A complexes” (Nature Communications, 2017)", "molecules": {"B1": {"name": "TIPRL (TOR signaling pathway regulator), full length, wild type (natural protein, UniProt Q8BH58 1-271, looked up)", "chain": "MMIHGFQSSHQDFSFGPWKLTASKTHIMKSADVEKLADELHMPSLPEMMFGDNVLRIQHGSGFGIEFNATDALRCVNNYQGMLKVACAEEWQESRTEGEHSKEVIKPYDWTYTTDYKGTLLGESLKLKVVPTTDHIDTEKLKAREQIKFFEEVLLFEDELHDHGVSSLSVKIRVMPSSFFLLLRFFLRIDGVLIRMNDTRLYHEADKTYMLREYTSRESKIANLMHVPPSLFTEPNEISQYLPIKEAVCEKLVFPERIDPNPVDSQSTPSE", "notes": "TIPRL, full length, for biochemical experiments; Cloned into pQLinkH; His6-tag removed by TEV protease; also called WT TIPRL; source: E. coli BL21 (DE3), purified (Ni-NTA, Source 15Q, Superdex 200)"}, "B2": {"name": "mouse TIPRL (12-259) (domain or fragment, UniProt Q8BH58 12-259, looked up)", "chain": "DFSFGPWKLTASKTHIMKSADVEKLADELHMPSLPEMMFGDNVLRIQHGSGFGIEFNATDALRCVNNYQGMLKVACAEEWQESRTEGEHSKEVIKPYDWTYTTDYKGTLLGESLKLKVVPTTDHIDTEKLKAREQIKFFEEVLLFEDELHDHGVSSLSVKIRVMPSSFFLLLRFFLRIDGVLIRMNDTRLYHEADKTYMLREYTSRESKIANLMHVPPSLFTEPNEISQYLPIKEAVCEKLVFPERID", "notes": "TIPRL, mouse, residues 12-259; also called native TIPRL (12-259); source: E. coli BL21 (DE3), purified (Ni-NTA, Source 15Q, Superdex 200)"}}, "key": {"[1]": {"target": "PP2A scaffold subunit (Homo sapiens) (UniProt P30153)", "sequence (P30153 2-589)": "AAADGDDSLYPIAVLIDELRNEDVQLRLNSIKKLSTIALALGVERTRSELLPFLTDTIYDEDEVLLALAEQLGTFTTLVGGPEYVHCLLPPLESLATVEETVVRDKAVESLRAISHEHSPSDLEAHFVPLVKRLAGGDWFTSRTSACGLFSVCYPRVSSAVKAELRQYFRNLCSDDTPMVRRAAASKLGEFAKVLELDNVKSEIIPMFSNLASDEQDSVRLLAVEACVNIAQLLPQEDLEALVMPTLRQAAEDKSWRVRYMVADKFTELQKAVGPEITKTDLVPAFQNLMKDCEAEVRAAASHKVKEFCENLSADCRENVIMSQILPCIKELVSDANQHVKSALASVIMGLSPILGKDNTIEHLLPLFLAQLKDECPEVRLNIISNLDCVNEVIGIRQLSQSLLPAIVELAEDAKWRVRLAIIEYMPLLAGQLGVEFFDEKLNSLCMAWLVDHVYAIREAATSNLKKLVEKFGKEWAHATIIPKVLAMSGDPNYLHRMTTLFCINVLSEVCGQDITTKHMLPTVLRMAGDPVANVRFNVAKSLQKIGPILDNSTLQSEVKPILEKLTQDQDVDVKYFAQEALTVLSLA", "conditions": "cited from earlier work"}, "[2]": {"target": "T1, PP2A scaffold subunit (Aα) alone, as tested against TIPRL in Supplementary Fig. 6b (human, UniProt P30153 8-589)", "T1 construct": "PP2A scaffold subunit Aα, human; Aα (8-589) is named for biochemical experiments; source: E. coli BL21(DE3), purified (glutathione resin, Source 15Q)", "T1 sequence (P30153 8-589)": "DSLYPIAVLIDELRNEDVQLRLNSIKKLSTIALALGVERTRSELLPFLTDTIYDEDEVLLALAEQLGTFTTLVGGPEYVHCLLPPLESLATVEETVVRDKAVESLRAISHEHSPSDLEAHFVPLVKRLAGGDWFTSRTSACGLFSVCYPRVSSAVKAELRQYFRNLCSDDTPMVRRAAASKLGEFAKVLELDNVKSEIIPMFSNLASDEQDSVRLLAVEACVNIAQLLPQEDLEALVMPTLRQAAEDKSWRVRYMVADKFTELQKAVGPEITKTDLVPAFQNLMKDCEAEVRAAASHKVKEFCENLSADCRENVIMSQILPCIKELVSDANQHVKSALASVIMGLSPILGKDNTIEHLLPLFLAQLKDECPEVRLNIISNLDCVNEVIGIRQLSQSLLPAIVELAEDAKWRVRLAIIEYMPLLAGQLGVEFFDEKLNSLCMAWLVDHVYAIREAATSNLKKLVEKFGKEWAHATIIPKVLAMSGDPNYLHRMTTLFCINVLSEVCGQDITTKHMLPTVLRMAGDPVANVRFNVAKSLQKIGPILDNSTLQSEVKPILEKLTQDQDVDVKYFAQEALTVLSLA", "assay": "not stated; Supplementary Fig. 6; TIPRL with PP2Ac or the scaffold subunit alone", "conditions": "both partners purified"}, "[3]": {"target": "T2, PP2A catalytic subunit Cα (1-309) (human, UniProt P67775 1-309)", "T2 construct": "source: Hi-5 insect cells (baculovirus), purified (Ni-NTA, Source 15Q)", "T2 sequence (P67775 whole entry)": "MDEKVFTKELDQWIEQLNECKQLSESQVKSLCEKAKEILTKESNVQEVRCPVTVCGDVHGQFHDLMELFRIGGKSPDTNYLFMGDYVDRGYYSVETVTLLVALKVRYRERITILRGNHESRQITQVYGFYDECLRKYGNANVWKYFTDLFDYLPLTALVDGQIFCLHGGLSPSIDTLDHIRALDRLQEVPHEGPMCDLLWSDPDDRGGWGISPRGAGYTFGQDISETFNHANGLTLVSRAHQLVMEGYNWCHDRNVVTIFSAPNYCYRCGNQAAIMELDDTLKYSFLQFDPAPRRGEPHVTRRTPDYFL", "assay": "not stated; Supplementary Fig. 6; TIPRL with PP2Ac or the scaffold subunit alone", "conditions": "both partners purified"}, "[4]": {"target": "GST-tagged methylated PP2A core enzyme (GST-Aα bound to carboxyl-methylated Cα) (human, UniProt P30153 8-589; P67775 1-309, carboxyl-methylated C-terminus (L309, the last residue of PP2Ac))", "sequence (P30153 8-589, chain 1 of 2)": "as the sequence (P30153 8-589) above", "sequence (P67775 whole entry, chain 2 of 2)": "as the sequence (P67775 whole entry) above", "assay": "cell-based or functional assay"}, "[5]": {"target": "T3, GST-tagged unmethylated PP2A core enzyme (GST-Aα bound to Cα) (human, UniProt P30153 8-589; P67775 1-309)", "T3 construct": "PP2A scaffold subunit Aα, human, residues 8-589; The methods also speak of full-length Aα in pGEX-2T; also called GST-PP2A core enzyme; GST-PP2A-AC dimer; source: GST-Aα: E. coli BL21(DE3), purified (glutathione resin, Source 15Q); Cα: Hi-5 insect cells (baculovirus), purified (Ni-NTA, Source 15Q)", "T3 sequence (P30153 8-589, chain 1 of 2)": "as the sequence (P30153 8-589) above", "T3 sequence (P67775 whole entry, chain 2 of 2, the tested form may be a part)": "as the sequence (P67775 whole entry) above", "assay": "BLI + pull-down; BLI: anti-GST sensors loaded with 150 nM GST-PP2A-AC dimer, TIPRL 0-30 μM, 300 s association and 300 s dissociation, 1:1 model; pull-down of titrated TIPRL by GST-tagged core enzyme on GS4B", "conditions": "both partners purified"}, "[6]": {"target": "T2, PP2A catalytic subunit Cα (1-309)", "assay": "crystal structure; PP2A-TIPRL complex, sitting drop, 18 °C, 0.1 M citric acid pH 5.2, 9% PEG 4000, 0.2 M sodium acetate; 3.8 Å; four copies in the asymmetric unit", "conditions": "both partners purified"}, "[7]": {"target": "T4, PP2A scaffold subunit Aα (8-589), as in the crystal of the PP2A-TIPRL complex (human, UniProt P30153 8-589, selenomethionine-labeled)", "T4 construct": "PP2A scaffold subunit Aα, human, residues 8-589; also called PP2A-A; A subunit; source: E. coli BL21(DE3), purified; GST removed by thrombin", "T4 sequence (P30153 8-589, one chain of several)": "as the sequence (P30153 8-589) above", "assay": "crystal structure; PP2A-TIPRL complex, sitting drop, 18 °C, 0.1 M citric acid pH 5.2, 9% PEG 4000, 0.2 M sodium acetate; 3.8 Å; four copies in the asymmetric unit", "conditions": "both partners purified"}, "[8]": {"target": "T5, PP2A core enzyme (Aα 8-589 and Cα 1-309) as crystallized with TIPRL (human, UniProt P30153 8-589; P67775 1-309, selenomethionine-labeled)", "T5 construct": "PP2A scaffold subunit Aα, human, residues 8-589; also called PP2A AC dimer; source: Aα: E. coli BL21(DE3); Cα: Hi-5 insect cells; assembled on glutathione resin, released by on-column thrombin cleavage, purified by ion exchange", "T5 sequence (P30153 8-589, chain 1 of 2)": "as the sequence (P30153 8-589) above", "T5 sequence (P67775 whole entry, chain 2 of 2, the tested form may be a part)": "as the sequence (P67775 whole entry) above", "assay": "crystal structure; PP2A-TIPRL complex, sitting drop, 18 °C, 0.1 M citric acid pH 5.2, 9% PEG 4000, 0.2 M sodium acetate; 3.8 Å; four copies in the asymmetric unit", "conditions": "both partners purified"}}, "data": [{"molecule": "PP2Ac (from UniProt P67775)", "values": [{"measurement": "Kd", "setting": "[1]", "result": 5, "unit": "nM"}]}, {"molecule": "B1", "values": [{"measurement": "Kd", "setting": "[2]", "result": "~10000", "unit": "nM"}, {"measurement": "Kd", "setting": "[3]", "result": "~600", "unit": "nM"}, {"measurement": "fold increase of the IC50 of TIPRL for phosphatase activity upon carboxylmethylation of the PP2A core enzyme", "setting": "[4]", "result": "~30", "unit": "fold"}, {"measurement": "Kd", "setting": "[5]", "result": "~310", "unit": "nM"}]}, {"molecule": "B2", "values": [{"measurement": "binding result", "setting": "[6]", "result": "binds"}, {"measurement": "binding result", "setting": "[7]", "result": "binds"}, {"measurement": "binding result", "setting": "[8]", "result": "binds"}]}]}
